Columns and labels:
[1] = target: T1, human EphA2 expressed on cells (human, UniProt P29317 24-976); assay: cell-based or functional assay
[2] = target: T1, human EphA2 expressed on cells; assay: immunofluorescence of HUVEC cells labeled with 50 ug/ml antibody at 4 C, 0 or 20 min at 37 C, fixed, permeabilized, AlexaFluor 488 goat anti-human IgG, DAPI mounting medium
[3] = target: T2, mouse EphA2 expressed on cells (mouse, UniProt Q03145 26-977); assay: flow cytometry on tumor cell lines, 1 ug antibody, PE anti-human IgG
T2 construct: whole, on cells
T2 sequence (Q03145 26-977): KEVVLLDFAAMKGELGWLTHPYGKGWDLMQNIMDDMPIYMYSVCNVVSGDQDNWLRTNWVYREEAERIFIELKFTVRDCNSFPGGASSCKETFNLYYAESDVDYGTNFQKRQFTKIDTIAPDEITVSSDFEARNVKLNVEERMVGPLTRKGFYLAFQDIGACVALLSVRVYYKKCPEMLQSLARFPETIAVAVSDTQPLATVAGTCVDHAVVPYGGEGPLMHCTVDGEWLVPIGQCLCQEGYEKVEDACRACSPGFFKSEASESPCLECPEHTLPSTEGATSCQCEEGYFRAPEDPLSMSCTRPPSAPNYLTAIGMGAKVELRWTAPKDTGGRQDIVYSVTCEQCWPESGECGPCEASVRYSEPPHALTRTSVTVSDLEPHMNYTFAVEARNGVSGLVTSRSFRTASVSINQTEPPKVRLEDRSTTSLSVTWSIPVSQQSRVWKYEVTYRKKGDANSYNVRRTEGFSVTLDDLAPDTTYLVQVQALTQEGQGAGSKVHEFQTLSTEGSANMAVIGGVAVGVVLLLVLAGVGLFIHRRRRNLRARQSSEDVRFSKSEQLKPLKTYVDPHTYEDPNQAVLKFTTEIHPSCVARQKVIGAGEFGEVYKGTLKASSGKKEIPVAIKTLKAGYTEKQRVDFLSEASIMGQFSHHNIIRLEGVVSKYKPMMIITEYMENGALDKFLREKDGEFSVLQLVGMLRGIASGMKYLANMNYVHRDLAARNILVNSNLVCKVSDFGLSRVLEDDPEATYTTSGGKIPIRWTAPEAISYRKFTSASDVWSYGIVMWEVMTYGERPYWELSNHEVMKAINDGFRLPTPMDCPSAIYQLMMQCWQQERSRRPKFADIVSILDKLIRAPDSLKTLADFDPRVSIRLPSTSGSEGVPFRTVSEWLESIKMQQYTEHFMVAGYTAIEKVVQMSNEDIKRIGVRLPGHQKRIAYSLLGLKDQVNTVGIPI
Protocol: (§1) The cells were then washed 2× with cold PBS and stained for 30 minutes at 4° C. with secondary Abs (Phycoerythin conjugated goat-a-human IgG, Biosource). Fluorescence analysis was performed using a FACS Calibur flow cytometer (BD Biosciences).

[4] = target: T1, human EphA2 expressed on cells; assay: flow cytometry on twelve human cell lines, 1 ug primary antibody per 2x10^5 cells, PE goat anti-human IgG; y axis Mean Fl. Shift (%)
Protocol: as §1

T1 sequence (P29317 24-976): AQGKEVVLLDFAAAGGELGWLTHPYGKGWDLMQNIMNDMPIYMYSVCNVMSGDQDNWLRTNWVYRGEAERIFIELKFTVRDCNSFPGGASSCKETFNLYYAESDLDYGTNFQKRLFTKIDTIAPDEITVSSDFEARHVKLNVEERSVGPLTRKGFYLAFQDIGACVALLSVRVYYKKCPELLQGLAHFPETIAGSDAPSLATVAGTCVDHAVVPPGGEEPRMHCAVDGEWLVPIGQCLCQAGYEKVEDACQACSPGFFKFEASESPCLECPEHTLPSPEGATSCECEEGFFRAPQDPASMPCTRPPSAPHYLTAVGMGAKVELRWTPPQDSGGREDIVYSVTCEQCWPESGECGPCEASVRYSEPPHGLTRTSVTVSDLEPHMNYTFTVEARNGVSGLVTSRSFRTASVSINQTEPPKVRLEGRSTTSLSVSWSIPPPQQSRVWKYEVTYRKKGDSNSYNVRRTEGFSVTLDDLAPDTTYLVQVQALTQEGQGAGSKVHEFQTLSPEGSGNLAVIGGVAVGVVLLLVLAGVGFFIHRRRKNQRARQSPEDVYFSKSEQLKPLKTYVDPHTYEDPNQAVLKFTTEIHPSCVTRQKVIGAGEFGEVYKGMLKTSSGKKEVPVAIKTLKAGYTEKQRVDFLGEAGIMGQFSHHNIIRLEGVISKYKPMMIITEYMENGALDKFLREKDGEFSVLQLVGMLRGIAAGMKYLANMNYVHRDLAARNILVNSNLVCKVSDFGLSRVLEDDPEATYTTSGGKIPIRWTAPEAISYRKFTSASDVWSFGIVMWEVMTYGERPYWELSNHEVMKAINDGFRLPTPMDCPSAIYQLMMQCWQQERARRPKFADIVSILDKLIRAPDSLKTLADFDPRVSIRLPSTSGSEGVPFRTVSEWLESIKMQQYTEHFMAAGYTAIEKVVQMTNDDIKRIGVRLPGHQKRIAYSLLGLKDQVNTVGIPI

B1: 3F2mcMMAF (antibody, V domains shown)
VH: EVQLVESGGGVVRPGGSLRLSCAASGFTVSDYSMNWVRQAPGKGLEWIGFIRNKANAYTTEYSASVKGRFTISRDDSKNTLYLQMNSLKTEDTAVYYCTTYPRYHAMDSWGQGTMVTVSS
VL: AIQLTQSPSSLSASVGDRVTITCRASQSISNNLHWYLQKPGQSPQLLIYYGFQSISGVPSRFSGSGSGTDFTLTISSLQPEDFATYYCQQANSWPLTFGGGTKLEIK
modifications: antibody conjugated to monomethylauristatin F (MMAF) through a maleimidocaproyl-citrulline (mc) linker; attachment residues not stated
B1 was tested, and the “IC50 (read off the curve), growth inhibition of MCF10-A cells” value [1] was ~20 nM.

B2: anti-EphA2 antibody 3F2 (antibody, V domains shown)
VH: B1 VH
VL: B1 VL
notes: Humanized agonistic monoclonal antibody
B2: binds [2].

B3: anti-EphA2 antibody 1H3 (antibody, V domains shown)
VH: EVQLLESGGGLVQPGGSLRLSCAASGFTFSMYAMRWVRQAPGKGLEWVSVIGPSGGWTPYADSVKGRFTISRDNSKNTLYLQMNSLRAEDTAVYYCARDRGIYGMDVWGQGTTVTVSS
VL: DIQMTQSPSFLSASVGDRVTITCRASQGISSYLAWYQQKPGKAPKLLIYAASTLQSGVPSRFSGSGSGTEFTLTISSLQPEDFATYYCLELNNYPFTFGLGTKVHIK
B3: binds [3]; binds [4].

— patent US20090304721A1 (MEDLMMUNE, published 2009)
